In the supplement of paper PMC7125110:
± gives the standard error. Fewer inactive variants are shown than the library holds.

B1: glmS ribozyme (parent)
chain: AUAAAAGCGCCAGAACUACAGAAAUGUAGUUGACGAGGAGGAGGUUUAUCGAAUUUUCGGCGGAUGCCUCCAAA

Assays:
Details in all cases: with glucosamine-6-phosphate
[1] = variants of: B1; assay: self-cleavage kobs at 40 uM GlcN6P; higher = faster cleavage; RNA array
How it was run: (§1)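 kcat and KM were obtained from weighted Michaelis–Menten fits across concentrations of kobs values. Those came from one- or two-exponential decay fits to per-tile medians normalised to baseline and to non-cleaving reference variants. The variants were barcoded ribozymes transcribed in situ by E. coli RNA polymerase on sequenced MiSeq chips and tracked through a hybridised Cy3 probe at 37 °C, with 40 μM to 10 mM glucosamine-6-phosphate in HEPES/KCl/Mg(OAc)2 buffer flowed in.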

[2] = variants of: B1; assay: self-cleavage kobs at 160 uM GlcN6P; higher = faster cleavage; RNA array
How it was run: as §1

[3] = variants of: B1; assay: self-cleavage kobs at 640 uM GlcN6P; higher = faster cleavage; RNA array
How it was run: as §1

[4] = variants of: B1; assay: self-cleavage kobs at 2500 uM GlcN6P; higher = faster cleavage; RNA array
How it was run: as §1

[5] = variants of: B1; assay: self-cleavage kobs at 10000 uM GlcN6P; higher = faster cleavage; RNA array
How it was run: as §1

Variant	self-cleavage kobs at 40 uM GlcN6P [1] [s⁻¹]	self-cleavage kobs at 160 uM GlcN6P [2] [s⁻¹]	self-cleavage kobs at 640 uM GlcN6P [3] [s⁻¹]	self-cleavage kobs at 2500 uM GlcN6P [4] [s⁻¹]	self-cleavage kobs at 10000 uM GlcN6P [5] [s⁻¹]
G62C	< 1e-05	< 1e-05	< 1e-05	< 1e-05	< 1e-05
A15U C16A G60U	< 1e-05	–	–	–	< 1e-05
G38U G40C	< 1e-05	–	< 1e-05	< 1e-05	< 1e-05
C11U A12U G43A C61G	< 1e-05	–	–	–	< 1e-05
A42C U57A	< 1e-05	–	< 1e-05	< 1e-05	< 1e-05
A42G U55A	0.00136 ± 0.00015	0.00202 ± 0.00052	0.0283 ± 0.0091	0.0289 ± 0.0077	0.0423 ± 0.013
G7A C50G C71U	0.000141 ± 3.5e-05	0.000482 ± 9.3e-05	0.000136 ± 3.9e-05	0.000177 ± 3.7e-05	9.72e-05 ± 2.2e-05
C8A C34G A52U C67U	< 1e-05	–	–	–	< 1e-05
A6U G9A U65G C70A	< 1e-05	–	–	–	–
A15G U69C	0.00027 ± 7e-05	–	0.00141 ± 0.00058	0.00345 ± 0.0012	–
A42G C67A	0.000813 ± 0.00013	0.00197 ± 0.00067	0.008 ± 0.0032	0.00552 ± 0.0024	0.0213 ± 0.0053
C11A G38U C67G C68U	0.000296 ± 7.3e-05	–	–	–	0.000394 ± 9.3e-05
A36C G40A U56G	< 1e-05	–	–	–	–
A15U G35U	< 1e-05	< 1e-05	< 1e-05	< 1e-05	< 1e-05
C10U U46G	< 1e-05	< 1e-05	–	–	–
G41U C70G	0.00157 ± 0.00018	0.00262 ± 0.00038	0.00612 ± 0.00092	0.00944 ± 0.0019	0.0513 ± 0.014
G44C A64G C70U	< 1e-05	–	< 1e-05	< 1e-05	< 1e-05
C8G G29U C71G	< 1e-05	–	–	–	–
G40A C71A	0.00036 ± 4.6e-05	0.000678 ± 0.00011	0.00251 ± 0.00036	0.00849 ± 0.0017	0.0185 ± 0.0049
G32C A39C G44A A48G U65C C68A C71A	< 1e-05	–	–	–	< 1e-05
G41U C50G	< 1e-05	–	< 1e-05	–	< 1e-05
G13U G38U C68G	0.00012 ± 4.3e-05	0.000111 ± 2.7e-05	0.000157 ± 4.9e-05	6.64e-05 ± 2.9e-05	7.63e-05 ± 1.8e-05
U45C G63A	< 1e-05	< 1e-05	–	< 1e-05	< 1e-05

Variant	self-cleavage kobs at 40 uM GlcN6P [1] [s⁻¹]	self-cleavage kobs at 160 uM GlcN6P [2] [s⁻¹]	self-cleavage kobs at 640 uM GlcN6P [3] [s⁻¹]	self-cleavage kobs at 2500 uM GlcN6P [4] [s⁻¹]	self-cleavage kobs at 10000 uM GlcN6P [5] [s⁻¹]
G38A U57A U65C	< 1e-05	–	–	–	–
G37A U56G	5.06e-05 ± 1.6e-05	–	–	–	0.00174 ± 0.00028
G32C A42C C68A	< 1e-05	–	< 1e-05	–	–
C8U A14G C16U	< 1e-05	–	–	–	< 1e-05
C11U A48G C68A	< 1e-05	–	–	–	–
G7A A12G U30C U49A C71U	< 1e-05	–	–	–	–
A14C A15U U56G	0.000225 ± 6.3e-05	–	0.00145 ± 0.00027	0.00238 ± 0.00057	0.00809 ± 0.0027
G32C C67A	< 1e-05	–	–	–	2.83e-05 ± 9.7e-06
U47A U55A	0.000618 ± 0.00013	0.00147 ± 0.00021	0.00544 ± 0.0015	0.00615 ± 0.0017	0.0432 ± 0.015
A14U A42G G44U G63U	< 1e-05	–	–	< 1e-05	–
A12U G13C C34U G62A U65G	< 1e-05	–	–	–	–
G7U G43U A52G C68A C70U	< 1e-05	–	–	–	–
C16A G29C U56G A64G	2.81e-05 ± 1.4e-05	–	–	–	0.00203 ± 0.00038
A15G U30C C67A	0.000291 ± 6.8e-05	0.00105 ± 0.00028	0.00103 ± 0.00029	0.00517 ± 0.0012	0.0108 ± 0.0031
C34G A53C U69A	< 1e-05	–	–	–	< 1e-05
G13U A36U A48G U55C C68G C70U	0.0002 ± 6.4e-05	–	–	–	0.000527 ± 0.00022
U30C C61U	< 1e-05	< 1e-05	–	–	–
U30C C61A	< 1e-05	–	–	–	< 1e-05
G37U U46C	< 1e-05	–	–	–	< 1e-05
A14G G62A	< 1e-05	–	–	–	–
G7A C10U U45G C70G	< 1e-05	–	< 1e-05	< 1e-05	< 1e-05
G7C C16G A52G	< 1e-05	–	< 1e-05	–	< 1e-05
U47G U49G C50G G51A C61A	9.02e-05 ± 2.3e-05	–	–	–	0.000142 ± 3.3e-05

Variant	self-cleavage kobs at 40 uM GlcN6P [1] [s⁻¹]	self-cleavage kobs at 160 uM GlcN6P [2] [s⁻¹]	self-cleavage kobs at 640 uM GlcN6P [3] [s⁻¹]	self-cleavage kobs at 2500 uM GlcN6P [4] [s⁻¹]	self-cleavage kobs at 10000 uM GlcN6P [5] [s⁻¹]
A12U A33C A42C	< 1e-05	–	–	–	–
U31A U49C	< 1e-05	< 1e-05	< 1e-05	< 1e-05	< 1e-05
C8A C16G	< 1e-05	< 1e-05	< 1e-05	< 1e-05	< 1e-05
G38U G41C C68G	< 1e-05	–	–	–	< 1e-05
A42C G62C	< 1e-05	< 1e-05	–	–	< 1e-05
G7U U57G C61A C68U C70U	5.84e-05 ± 2.5e-05	–	–	–	–
G59C C70U	< 1e-05	–	< 1e-05	–	–
G41C A48C	< 1e-05	–	< 1e-05	< 1e-05	< 1e-05
A42U C50U	< 1e-05	< 1e-05	< 1e-05	< 1e-05	< 1e-05
U30C A33C U47G	< 1e-05	–	–	–	< 1e-05
A33G G35C C70G	0.000358 ± 8.4e-05	–	–	–	0.000163 ± 4.5e-05
A33U U45G G51A	< 1e-05	–	–	–	< 1e-05
A42C C71G	< 1e-05	< 1e-05	< 1e-05	< 1e-05	< 1e-05
A33G C61G A64C	< 1e-05	–	–	–	< 1e-05
A15U G51C A64G	< 1e-05	–	–	–	–
A14U C34U	< 1e-05	< 1e-05	< 1e-05	< 1e-05	< 1e-05
G7C G41U C50G	< 1e-05	–	–	–	–
G7C A39G	< 1e-05	< 1e-05	< 1e-05	< 1e-05	< 1e-05
A48G G51C	< 1e-05	< 1e-05	–	< 1e-05	< 1e-05
G9A G13A G63C	< 1e-05	–	–	–	< 1e-05
G21A C70A	3.65e-05 ± 1.8e-05	–	–	7.55e-05 ± 1.5e-05	0.000262 ± 6.9e-05
G29C G60A	< 1e-05	< 1e-05	–	< 1e-05	< 1e-05
A52U C58A	< 1e-05	–	< 1e-05	–	–

Variant	self-cleavage kobs at 40 uM GlcN6P [1] [s⁻¹]	self-cleavage kobs at 160 uM GlcN6P [2] [s⁻¹]	self-cleavage kobs at 640 uM GlcN6P [3] [s⁻¹]	self-cleavage kobs at 2500 uM GlcN6P [4] [s⁻¹]	self-cleavage kobs at 10000 uM GlcN6P [5] [s⁻¹]
A14U G43A U55A C61A	< 1e-05	–	–	–	< 1e-05
A39U U55C	0.000475 ± 4.6e-05	0.00102 ± 0.00013	0.00443 ± 0.00071	0.00902 ± 0.002	0.0244 ± 0.0038
C8G A12U A33U G60C	< 1e-05	–	–	–	< 1e-05
G60A C61G	< 1e-05	–	–	< 1e-05	< 1e-05
G7A A15G C61U C71U	< 1e-05	< 1e-05	–	< 1e-05	–
G44A A52C	< 1e-05	< 1e-05	< 1e-05	< 1e-05	< 1e-05
A12U G40A G63C	< 1e-05	–	–	–	–
G7C U57A	< 1e-05	< 1e-05	–	–	–
G9U U30G	< 1e-05	–	< 1e-05	–	< 1e-05
G32C G63A	< 1e-05	< 1e-05	< 1e-05	< 1e-05	–
C10A C50G	7.92e-05 ± 1.7e-05	0.000235 ± 5.6e-05	0.000189 ± 4.1e-05	0.000174 ± 3.5e-05	6.81e-05 ± 1.2e-05
G9A G43C	< 1e-05	–	–	–	–
C50G C61U	3.66e-05 ± 1.1e-05	6.61e-05 ± 1.4e-05	9.4e-05 ± 1.3e-05	0.000423 ± 0.0002	–
A12C C34G G37U	< 1e-05	–	–	–	< 1e-05
C16G C34G G44U C50U U69C	< 1e-05	–	–	–	–
G7C U30G	< 1e-05	< 1e-05	< 1e-05	< 1e-05	< 1e-05
G9C C10G	< 1e-05	< 1e-05	< 1e-05	< 1e-05	< 1e-05
U30G A39G C50G C68G	0.00025 ± 6.5e-05	–	–	–	0.000218 ± 4.7e-05
G9A C50G C70G	9.06e-05 ± 2.7e-05	–	–	–	4.63e-05 ± 1.4e-05
A48C A64U	< 1e-05	< 1e-05	< 1e-05	–	–
U47G C70G C71G	8.97e-05 ± 2.5e-05	–	–	–	–
A12G C50G C58U	0.000139 ± 4.9e-05	–	–	–	3.85e-05 ± 1.8e-05
C8A A15U U31A G41U C50U G51U G62A	< 1e-05	–	–	< 1e-05	< 1e-05
